Bridges are numbered along the chain shown (N, C = ends). [ ]: non-standard residue; d: D form. S5 = C=CCCC[C@](C)(N)C(=O)O
Molecular target: LBD fragment of human Nur77 (residues 351–598) (human), P22736
Test: SPR
Conditions: S-pentenyl-alanine (S5) at the i and i + 4 positions (Phe163 & Ile167), joined by ring-closing olefin metathesis (all-hydrocarbon staple), C-terminal primary amide X8 and X12 = S5 (S-pentenyl-alanine, replacing Phe163 and Ile167 of PPARγ), joined by an i,i+4 all-hydrocarbon staple (ring-closing olefin metathesis), free N-terminal amine, Tyr14 replaces Leu169, residues 15-25 are t, modification not given

LBD fragment of human Nur77 (residues 351–598) (human), P22736, sequence (P22736 351-598): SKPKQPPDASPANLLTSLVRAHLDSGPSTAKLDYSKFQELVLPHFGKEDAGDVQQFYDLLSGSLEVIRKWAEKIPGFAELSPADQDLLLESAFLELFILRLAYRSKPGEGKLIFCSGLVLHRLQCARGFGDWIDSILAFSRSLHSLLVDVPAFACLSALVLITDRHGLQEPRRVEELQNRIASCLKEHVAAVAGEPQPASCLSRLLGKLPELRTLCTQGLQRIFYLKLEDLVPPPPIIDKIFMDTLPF

H-CEGCKGF[S5]RRT[S5]RYYGRKKRRQRRR-NH2 (staple 8-12; cysteine pairing not given here) [ST-CY14 (stapled T-CY14), P37231 156-169]
koff: 0.052 s⁻¹
